The record followed here is paper doi:10.1101/379495v1.

Substrate in this data set: O=[N+]([O-])c1ccc(O[C@@H]2O[C@@H](CO)[C@H](O)[C@H]2O)cc1
In words: purified protein. To be noted: general assay: sodium acetate buffer pH 5.5, 37 °C.

B1: BLLJ_1852 (Bifidobacterium longum subsp. longum JCM 1217) (protein)
chain: DTVPTNNLIAAYDFTTKPSDGKTVANSAPNATLGAAEVQNSADSLWADDALTLSGGAKTGTGDWVKLPSNLLSGKDAATVQLEVKADSSMLNAFHFLWNIGNDSSDTEYFFATLNCGSSRNPLVGLKSGGTETLVQSSSCVAKADQWLSVTATIDGTAAKLYIDGTQVASGTVPAKLSSVKDQSLNTIGRSPWPDNLFKGAVSNFRVYDAALTADQVAAISTADASIHAGELTGSVLNGIIIPTTVDDPFISLPTANGVTWASSDSSVIATDGTVNQPAKGEAAKTVTLTAAVTVRGQTATKEFTVTVNPTTKTAAEQLKEVAAGYVIPSVVRSGDALPAAVNGTTVTVTSTKDVAVEDGKITIDGDEATTGTITVEFSKNGLAGIEPITKAFTVKVLPAAKSATIAAYDRNATGENEANNGDVAYSMHLALQNADGSYTPYNENYGIFFARSPKAQKLNENLDGNDYRSLKDPSLFRMADGTYGVISVRTNRGTATGDSTAKSSVLIATSEDLLTYSEQENSGSIVDLGETNGVNAPYAVYDTASKQYVVGWADDNGVAKYTTFDSLKGSTSKHGSVLYGSVAKSGVLAADGVQGIANFRSGATIAVDEATVKALNTRYGRSENTGTSNLTDITVKKGASIDEVTAQLPKNVDLTYSDGSTGSLPISSWNTEGIDLTKVGDYTVTGTVKQTEYQIPFAEDRADPSVYKWQWTHEADGKEVTETKFLMIASNDIQGDVTWQHGSPHMPFRMADTISGLADEPGNPNALIQSNGYNNKEVSLLKAGDKDSEGNAIMHSFWAPEIHEIDGRLTILFMAGYGNTWSNGKSVYMQLKQDADGHDLDPADPDNWTVPTPIYRNDASLLNGNKQLAATASGGVGMSLDMTYFQDADGRSYYAWQQLGATYIATMDPKDPAHVTSSPVRIVTPEYAWNAAIAEGPNVTLRDGKLYLMFSGSGVGKTYTTGLAVADASGTDLTDPASWTVLNYPIQKSGPFNGEMQLGTGHGMWSEDEDGNQIYVFHAYATKNLGSVNATGRDMFVRRVHWAADGMPVFDMSSSEELASKTVSVTVKVVDDTVTVDKTDLSKALASAKQLRESDYTAASWKAFAAALASAEKVYADENASQKDVDDATAALNKAQAALVKVDGSDSGDGSSDSTKPGDGSSIDAGATGDKTGNKLGLS
The Km is the substrate concentration at which the rate is half of its maximum. As usually defined, the kcat is the number of substrate molecules converted per active site and unit of time at saturation. B1: the Km came to 9.8 mM and the turnover number (kcat) was determined as 19.2 s⁻¹.
